Data as given in article PMC3018788 (The EMBO Journal, 2010).
Each block holds one binder with its values, some of them ahead of it.

Key:
[1] = molecular target: recombinant MBP-tagged DmPABPC1 (D. melanogaster, UniProt P21187 1-634); assay: pull-down
[2] = molecular target: recombinant MBP-tagged HsPABPC1 (human, UniProt P11940 1-636); assay: pull-down
Sequence of recombinant MBP-tagged HsPABPC1 (P11940 whole entry): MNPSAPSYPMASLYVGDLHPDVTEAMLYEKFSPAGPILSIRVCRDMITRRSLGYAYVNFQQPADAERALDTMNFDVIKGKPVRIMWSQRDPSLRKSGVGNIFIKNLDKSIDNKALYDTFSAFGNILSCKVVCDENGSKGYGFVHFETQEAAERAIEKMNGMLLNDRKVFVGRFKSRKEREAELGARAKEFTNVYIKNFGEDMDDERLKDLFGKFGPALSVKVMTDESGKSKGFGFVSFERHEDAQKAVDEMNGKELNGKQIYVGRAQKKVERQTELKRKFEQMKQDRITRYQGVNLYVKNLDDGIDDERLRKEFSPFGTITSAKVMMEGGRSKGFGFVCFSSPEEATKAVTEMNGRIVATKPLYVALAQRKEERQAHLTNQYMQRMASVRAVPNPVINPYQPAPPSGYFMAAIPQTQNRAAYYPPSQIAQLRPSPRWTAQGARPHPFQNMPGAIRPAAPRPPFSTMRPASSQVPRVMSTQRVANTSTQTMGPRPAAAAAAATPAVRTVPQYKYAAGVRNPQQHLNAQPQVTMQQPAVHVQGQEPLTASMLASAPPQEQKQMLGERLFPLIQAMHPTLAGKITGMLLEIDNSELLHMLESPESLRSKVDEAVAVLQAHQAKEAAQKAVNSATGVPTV

Sequence of recombinant MBP-tagged DmPABPC1 (P21187 whole entry): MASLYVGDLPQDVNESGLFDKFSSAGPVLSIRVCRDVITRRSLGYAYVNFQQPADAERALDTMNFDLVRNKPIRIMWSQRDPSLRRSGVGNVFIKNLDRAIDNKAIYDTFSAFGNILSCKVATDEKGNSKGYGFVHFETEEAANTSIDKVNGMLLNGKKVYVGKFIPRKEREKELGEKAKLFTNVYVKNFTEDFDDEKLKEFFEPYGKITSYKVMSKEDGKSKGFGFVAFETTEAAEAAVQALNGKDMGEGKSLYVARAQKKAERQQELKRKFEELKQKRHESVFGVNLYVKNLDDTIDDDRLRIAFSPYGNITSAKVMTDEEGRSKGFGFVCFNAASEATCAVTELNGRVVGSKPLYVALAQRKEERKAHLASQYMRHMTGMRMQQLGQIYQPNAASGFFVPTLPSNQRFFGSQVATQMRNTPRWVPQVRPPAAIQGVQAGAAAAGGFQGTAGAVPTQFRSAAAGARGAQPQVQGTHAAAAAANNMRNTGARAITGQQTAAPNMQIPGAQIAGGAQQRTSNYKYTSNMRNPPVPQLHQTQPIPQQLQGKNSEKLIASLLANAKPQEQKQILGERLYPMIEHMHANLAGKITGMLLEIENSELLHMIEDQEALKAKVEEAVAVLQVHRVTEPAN

binding result [1]: binds
B1: GST-GW182-SD (domain or fragment, D. melanogaster, UniProt Q8SY33 937-1384, looked up)
chain: NENKDWSVAQPTSAATAYTDLVQEFEPGKPWKGSQIKSIEDDPSITPGSVARSPLSINSTPKDADIFANTGKNSPTDLPPLSLSSSTWSFNPNQNYPSHSWSDNSQQCTATSELWTSPLNKSSSRGPPPGLTANSNKSANSNASTPTTITGGANGWLQPRSGGVQTTNTNWTGGNTTWGSSWLLLKNLTAQIDGPTLRTLCMQHGPLVSFHPYLNQGIALCKYTTREEANKAQMALNNCVLANTTIFAESPSENEVQSIMQHLPQTPSSTSSSGTSGGNVGGVGTSANNANSGSAACLSGNNSGNGNGSASGAGSGNNGNSSCNNSAAGGGSSSNNTITTVANSNLVGSSGSVSNSSGVTANSSTVSVVSCTASGNSINGAGTANSSGSKSSANNLASGQSSASNLTNSTNSTWRQTSQNQALQSQSRPSGREADFDYISLVYSIVDD

binding result [2]: binds
B2: GST-TNRC6B-SD (domain or fragment, human, UniProt Q9UPQ9-1 1361-1723, looked up)
chain: SSNASWPPEFQPGVPWKGIQNIDPESDPYVTPGSVLGGTATSPIVDTDHQLLRDNTTGSNSSLNTSLPSPGAWPYSASDNSFTNVHSTSAKFPDYKSTWSPDPIGHNPTHLSNKMWKNHISSRNTTPLPRPPPGLTNPKPSSPWSSTAPRSVRGWGTQDSRLASASTWSDGGSVRPSYWLVLHNLTPQIDGSTLRTICMQHGPLLTFHLNLTQGTALIRYSTKQEAAKAQTALHMCVLGNTTILAEFATDDEVSRFLAQAQPPTPAATPSAPAAGWQSLETGQNQSDPVGPALNLFGGSTGLGQWSSSAGGSSGADLAGASLWGPPNYSSSLWGVPTVEDPHRMGSPAPLLPGDLLGGGSDSI
